Experimental findings from patent US20220040319A1, “METHODS OF TREATING OCULAR CANCER USING ANTI-MET ANTIBODIES AND BISPECIFIC ANTIGEN BINDING MOLECULES THAT BIND MET” (Regeneron Pharmaceuticals, Inc., priority 2019, published 2022) are described below.

In assay [1] the target is human MET (exon14 skip mutation) on NCI-H596 cells (human) (UniProt P08581). The assay is described as follows: cell-based or functional assay.
Assay [2] deals with MET (c-Met, hepatocyte growth factor receptor) on cells (human) (UniProt P08581).
MET (c-Met, hepatocyte growth factor receptor) on cells (human), sequence (P08581 25-1390 limits assumed, form in doubt): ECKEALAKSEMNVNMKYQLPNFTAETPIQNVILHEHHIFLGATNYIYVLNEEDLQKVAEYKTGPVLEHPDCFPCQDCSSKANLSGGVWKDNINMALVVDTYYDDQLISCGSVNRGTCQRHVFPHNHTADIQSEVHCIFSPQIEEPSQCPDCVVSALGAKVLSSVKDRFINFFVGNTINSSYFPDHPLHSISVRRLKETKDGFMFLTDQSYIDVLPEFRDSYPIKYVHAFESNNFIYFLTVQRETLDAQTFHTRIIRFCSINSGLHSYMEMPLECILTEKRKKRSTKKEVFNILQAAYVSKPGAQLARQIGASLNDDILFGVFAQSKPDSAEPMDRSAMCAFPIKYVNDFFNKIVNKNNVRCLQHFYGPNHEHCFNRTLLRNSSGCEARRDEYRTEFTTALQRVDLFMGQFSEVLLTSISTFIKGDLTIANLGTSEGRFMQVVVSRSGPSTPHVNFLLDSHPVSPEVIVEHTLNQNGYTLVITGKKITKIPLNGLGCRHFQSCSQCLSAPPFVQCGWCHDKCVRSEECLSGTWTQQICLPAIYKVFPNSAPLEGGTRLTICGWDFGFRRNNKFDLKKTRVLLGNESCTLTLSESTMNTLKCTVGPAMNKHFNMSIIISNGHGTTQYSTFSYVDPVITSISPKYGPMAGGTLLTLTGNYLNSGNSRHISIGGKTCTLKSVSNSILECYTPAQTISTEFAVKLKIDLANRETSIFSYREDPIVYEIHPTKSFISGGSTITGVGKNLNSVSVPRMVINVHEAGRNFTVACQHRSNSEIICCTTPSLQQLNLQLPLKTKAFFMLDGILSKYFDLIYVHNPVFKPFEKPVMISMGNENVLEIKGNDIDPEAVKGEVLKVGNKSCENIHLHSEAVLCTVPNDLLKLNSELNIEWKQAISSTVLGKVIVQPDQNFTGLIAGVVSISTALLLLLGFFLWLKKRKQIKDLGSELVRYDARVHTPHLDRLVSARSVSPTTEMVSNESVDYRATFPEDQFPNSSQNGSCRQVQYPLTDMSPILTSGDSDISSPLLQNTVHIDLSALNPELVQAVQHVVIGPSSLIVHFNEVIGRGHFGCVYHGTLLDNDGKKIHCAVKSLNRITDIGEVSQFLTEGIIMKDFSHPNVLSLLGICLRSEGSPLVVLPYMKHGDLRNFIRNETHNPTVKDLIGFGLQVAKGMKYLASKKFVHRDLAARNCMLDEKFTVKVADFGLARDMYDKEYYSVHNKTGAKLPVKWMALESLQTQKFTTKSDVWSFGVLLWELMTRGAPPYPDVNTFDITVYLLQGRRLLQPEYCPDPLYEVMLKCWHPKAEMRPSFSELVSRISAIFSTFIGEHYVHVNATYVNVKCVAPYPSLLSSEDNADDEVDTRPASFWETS
Assay [3] has the same target. This is another data set of the same source.

human MET (exon14 skip mutation) on NCI-H596 cells (human), sequence (P08581 25-1390, change not shown): as the sequence (P08581 25-1390 limits assumed, form in doubt) above

The substance “hepatocyte growth factor (from UniProt P14210 32-728) (ligand)” displayed a Relative Cell Growth (n = 3), NCI-H596 cells in soft agar, 100 ng/mL HGF, two weeks (normalized to control) in assay [1] of 7.88.

In assay [2], “monovalent anti-MET antibody (made with the heavy and light chain variable sequences of MetMab)” displayed an IC50 (read off the curve); blocking of HGF-induced SRE-luciferase signal in HEK293/SRE-Luc cells of 60 pM. Moreover, the IC50 (read off the curve); blocking of HGF-dependent SRE-driven luciferase signal in HEK293T cells in assay [3] is 400 pM.
